We go through 4 proteins from ChEMBL document CHEMBL1240325, “Non-heme dioxygenases: cellular sensors and regulators jelly rolled into one?” (Nat Chem Biol, 2007).

Substrate in series [1]: O=C(O)CCC(=O)C(=O)O
Nature of the series: (§1) Activity of collagen prolyl 4 hydroxylase-1.

Substrate in series [2]: O=C1O[C@H]([C@@H](O)CO)C(O)=C1O
The description is as §1.

Substrate in series [3]: O=O
The series is described as §1.

Substrate in series [4]: O=C(O)CCC(=O)C(=O)O
Nature of the series: (§2) Activity of HIF prolyl hydroxylase-2.

Substrate in series [5]: O=C1O[C@H]([C@@H](O)CO)C(O)=C1O
The description is as §2.

Substrate in series [6]: O=O
Described as §2.

Substrate in series [7]: O=C(O)CCC(=O)C(=O)O
As to the kind of experiment: (§3) Activity of HIF prolyl hydroxylase-3.

Substrate in series [8]: O=C1O[C@H]([C@@H](O)CO)C(O)=C1O
The description is as §3.

Substrate in series [9]: O=O
The series is described as §3.

Substrate in series [10]: O=C(O)CCC(=O)C(=O)O
As to the kind of experiment: (§4) Activity of FIH-1.

Substrate in series [11]: O=C1O[C@H]([C@@H](O)CO)C(O)=C1O
The description is as §4.

Substrate in series [12]: O=O
The description is as §4.

One may read the Km as the substrate concentration at which the rate is half of its maximum.

B1: Prolyl 4-hydroxylase subunit alpha-1 (Homo sapiens), P13674 (protein)
chain: MIWYILIIGILLPQSLAHPGFFTSIGQMTDLIHTEKDLVTSLKDYIKAEEDKLEQIKKWAEKLDRLTSTATKDPEGFVGHPVNAFKLMKRLNTEWSELENLVLKDMSDGFISNLTIQRQYFPNDEDQVGAAKALLRLQDTYNLDTDTISKGNLPGVKHKSFLTAEDCFELGKVAYTEADYYHTELWMEQALRQLDEGEISTIDKVSVLDYLSYAVYQQGDLDKALLLTKKLLELDPEHQRANGNLKYFEYIMAKEKDVNKSASDDQSDQKTTPKKKGVAVDYLPERQKYEMLCRGEGIKMTPRRQKKLFCRYHDGNRNPKFILAPAKQEDEWDKPRIIRFHDIISDAEIEIVKDLAKPRLRRATISNPITGDLETVHYRISKSAWLSGYENPVVSRINMRIQDLTGLDVSTAEELQVANYGVGGQYEPHFDFARKDEPDAFKELGTGNRIATWLFYMSDVSAGGATVFPEVGASVWPKKGTAVFWYNLFASGEGDYSTRHAACPVLVGNKWVSNKWLHERGQEFRRPCTLSELE
For B1, the Km is 20 µM in series [1], 300 µM in [2] and 40 µM in series [3].

B2: Egl nine homolog 1 (Homo sapiens), Q9GZT9 (protein)
chain: MANDSGGPGGPSPSERDRQYCELCGKMENLLRCSRCRSSFYCCKEHQRQDWKKHKLVCQGSEGALGHGVGPHQHSGPAPPAAVPPPRAGAREPRKAAARRDNASGDAAKGKVKAKPPADPAAAASPCRAAAGGQGSAVAAEAEPGKEEPPARSSLFQEKANLYPPSNTPGDALSPGGGLRPNGQTKPLPALKLALEYIVPCMNKHGICVVDDFLGKETGQQIGDEVRALHDTGKFTDGQLVSQKSDSSKDIRGDKITWIEGKEPGCETIGLLMSSMDDLIRHCNGKLGSYKINGRTKAMVACYPGNGTGYVRHVDNPNGDGRCVTCIYYLNKDWDAKVSGGILRIFPEGKAQFADIEPKFDRLLFFWSDRRNPHEVQPAYATRYAITVWYFDADERARAKVKYLTGEKGVRVELNKPSDSVGKDVF
Consider B2, for which the Km came out at 2 µM in series [4], 180 µM in series [5] and 100 µM in series [6].

B3: Prolyl hydroxylase EGLN3 (Homo sapiens), Q9H6Z9 (protein)
chain: MPLGHIMRLDLEKIALEYIVPCLHEVGFCYLDNFLGEVVGDCVLERVKQLHCTGALRDGQLAGPRAGVSKRHLRGDQITWIGGNEEGCEAISFLLSLIDRLVLYCGSRLGKYYVKERSKAMVACYPGNGTGYVRHVDNPNGDGRCITCIYYLNKNWDAKLHGGILRIFPEGKSFIADVEPIFDRLLFFWSDRRNPHEVQPSYATRYAMTVWYFDAEERAEAKKKFRNLTRKTESALTED
B3: the Km in [7] worked out at 55 µM; in series [8] it was 140 µM; in series [9], 230 µM.

B4: Hypoxia-inducible factor 1-alpha inhibitor (Homo sapiens), Q9NWT6 (protein)
chain: MAATAAEAVASGSGEPREEAGALGPAWDESQLRSYSFPTRPIPRLSQSDPRAEELIENEEPVVLTDTNLVYPALKWDLEYLQENIGNGDFSVYSASTHKFLYYDEKKMANFQNFKPRSNREEMKFHEFVEKLQDIQQRGGEERLYLQQTLNDTVGRKIVMDFLGFNWNWINKQQGKRGWGQLTSNLLLIGMEGNVTPAHYDEQQNFFAQIKGYKRCILFPPDQFECLYPYPVHHPCDRQSQVDFDNPDYERFPNFQNVVGYETVVGPGDVLYIPMYWWHHIESLLNGGITITVNFWYKGAPTPKRIEYPLKAHQKVAIMRNIEKMLGEALGNPQEVGPLLNTMIKGRYN
Consider B4, for which the Michaelis-Menten constant (Km) in series [10] amounted to 25 µM; in series [11], 260 µM; in series [12] it was 90 µM.
